The RNAGym collection of RNA variant scans (doi:10.7554/elife.90254)

B1: LINE1-mini (parent)
chain: GGCAGAGCUCAACACAGCGUGGCAAAGUGGCUGUGGCUAGACUGCC

Variants of: B1
Assay: self-cleavage, relative activity (ratio to wild type); higher = more cleavage; in vitro, sequencing; the parent is a self-cleaving ribozyme

Variant | self-cleavage
U20G C42U | 0.17
G2U | 0.09
G2A | 0.92
A14G A41C | 0.05
G5A G40A | 0.11
A4G C46A | 0.4
A16G C42G | 0.03
A4G A11G | 0.12
G7A G17U | 0.12
C3G C31U | 0.07
G19C G21C | 0.27
A26C U34C | 0.33
U9A G40U | 0.1
G17U | 0.23
G29U G30U | 1.72
A24U U34G | 0.24
A12G U20C | 0.08
A25U C31U | 0.23
A14U G30U | 0.19
U20C G40C | 0.06
A25U G27U | 0.74
U9A A11G | 0.03
C18U U28G | 0.43
G27A U32C | 0.15

Variant | self-cleavage
G27A U32G | 0.21
G19A A39U | 1.35
G5C C15A | 0.05
C8A C45U | 0.32
G33U C45A | 0.05
A6C U20G | 0.35
A6G C42A | 0.12
G7A G44C | 0.28
C8G A41C | 0.14
C37G | 0.05
G30C U34G | 0.1
G17A A25G | 0.07
A11C G30A | 0.08
G1C A14U | 0.02
U9C C45U | 0.03
G19U G36C | 0.1
G19U G36U | 0.04
G2C A25C | 0.15
A16G A39G | 0.07
A25U U32A | 0.04
A14U C46G | 0.19
A24C A26U | 0.43
A6C G35A | 0.08
G29C U43G | 0.01

Variant | self-cleavage
G2A A12C | 0.06
G5U C45G | 0.08
C18A U20G | 0.61
U9G C31G | 0.04
A6C U38A | 0.28
A12G U32G | 0.49
A12G U32A | 0.15
A16U G35A | 0.01
U20G U43A | 0.03
A25G G29U | 1.14
A6U G19U | 0.46
G5A C46A | 0.11
U32C C37U | 0.07
A12U A14G | 0.18
A25C C46A | 0.36
A16C U38G | 0.03
C3G C23A | 0.47
A16U A41G | 0.07
C23U A24G | 0.88
C15U U38C | 0.27
G36A C42G | 0.07
G1U C42G | 0.04
A16G A24U | 0.62
A12C C45A | 0.03

Variant | self-cleavage
C10U U28G | 0.23
A12U C37U | 0.02
G19U G30C | 0.59
A4U C23A | 0.16
A6C G7A | 0.18
G36U C45U | 0.11
A4G U43A | 0.12
G2A C23U | 2.33
G2A C23G | 0.4
C8A A25G | 0.23
G2C G7C | 0.14
C10G C23U | 0.09
G2A A14U | 0.37
G22C A26U | 0.82
A24C G35C | 0.06
C37G C42G | 0.02
A12C C18U | 0.04
A4U G19U | 0.15
U28C G29C | 1.2
A12U G40A | 0.21
G7U G36C | 0.09
C31U G33C | 0.15
G1U C15G | 0.04
C37A G40U | 0.2

Variant | self-cleavage
A11C G35C | 0.03
A26C G30U | 1.45
U32G C46A | 0.2
U9A A14G | 0.17
A25C G27A | 0.55
A4U C42G | 0.08
A14G U20A | 0.23
C10G G33U | 0.02
A24U A25U | 1.48
G5U G21A | 0.28
G21U U32A | 0.12
A26C C31A | 0.38
G7C A39U | 0.15
C13G A16C | 0.08
A4G U9G | 0.23
C3A C37U | 0.33
A6G U32C | 0.07
G5U A14C | 0.06
U20A G35C | 0.05
C8G A24G | 0.15
G5C U34A | 0.06
G1U A16G | 0.22
A12C C42U | 0.01
G7C U20G | 0.12

Variant | self-cleavage
A16C G17U | 0.08
A6U A12G | 0.04
A6U A12C | 0.04
U28A U38C | 0.38
A4C C15U | 0.13
C23G U28C | 0.66
G22C G35U | 0.15
C10A U20G | 0.03
U28C G30U | 0.7
C18U G33A | 0.09
G5C G22U | 0.04
G1U A11U | 0.07
U38C A41C | 0.04
A4G A14U | 0.24
A14C C42U | 0.07
A4U A24U | 0.21
A14G G29C | 0.37
G5U U32A | 0.07
G19A G27A | 1.19
G29C C42G | 0.02
G1A U43A | 0.05
C37G G40A | 0.08
C31U A39G | 0.05
C8G G35C | 0.06

Variant | self-cleavage
A4G G35C | 0.1
C18A G44A | 0.2
A26G U28G | 0.37
G21U U43C | 0.2
C13A G40A | 0.09
G2C C42U | 0.07
G5A G35U | 0.26
G1C G5U | 0.02
C23G A26U | 1.62
G29A C37G | 0.02
U9C G40U | 0.03
C18A A39C | 0.06
U28C C37U | 0.06
G1A A14G | 0.39
C31G U32C | 0.08
G5U G30A | 0.18
G33U U34C | 0.23
A14C C15A | 0.08
G29C A39C | 0.06
U32A G36C | 0.11
U34C G36U | 0.06
C13U A39U | 0.08
G29A G30U | 1.41
